Reference: US20260248972A1, “DUAL RECEPTOR TARGETING RADIOLIGANDS AND USES THEREOF RELATED APPLICATIONS” (priority 2022, published 2026)

Assay: in vivo
Conditions: BALB/c nude, mouse, iv, total radioactivity
Method in brief: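 Tissue uptake given as % ID and % ID/g from γ counting of organs taken 4, 24 and 72 h after injection into BALB/c nude mice carrying subcutaneous AR42J xenografts (0.05-0.50 g). Tracers were ^177Lu-labelled at 95° C for 15 min in pH 4.5 NaOAc buffer and used neat or diluted in PBS containing 3 mg/mL ascorbate.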

Compound	tissue uptake at 4 h (in vivo, % ID/g Blood)	tissue uptake at 24 h (in vivo, % ID/g Blood)	tissue uptake at 4 h (in vivo, % ID/g Femur)	tissue uptake at 24 h (in vivo, % ID/g Femur)	tissue uptake at 4 h (in vivo, % ID/g Heart)	tissue uptake at 24 h (in vivo, % ID/g Heart)	tissue uptake at 4 h (in vivo, % ID/g Intestine)	tissue uptake at 24 h (in vivo, % ID/g Intestine)	tissue uptake at 4 h (in vivo, % ID/g Kidney)	tissue uptake at 24 h (in vivo, % ID/g Kidney)	tissue uptake at 4 h (in vivo, % ID/g Liver)	tissue uptake at 24 h (in vivo, % ID/g Liver)	tissue uptake at 4 h (in vivo, % ID/g Lung)	tissue uptake at 24 h (in vivo, % ID/g Lung)	tissue uptake at 4 h (in vivo, % ID/g Muscle)	tissue uptake at 24 h (in vivo, % ID/g Muscle)	tissue uptake at 4 h (in vivo, % ID/g Pancreas)	tissue uptake at 4 h (in vivo, % ID/g Spleen)	tissue uptake at 24 h (in vivo, % ID/g Spleen)	tissue uptake at 4 h (in vivo, % ID/g Stomach)	also measured
C[C@@H](O)[C@H](NC(=O)[C@@H]1CSSC[C@H](NC(=O)[C@@H](Cc2ccccc2)NC(=O)COCCOCCNC(=O)[C@H](CCCCNC(=O)CCC(C(=O)O)N2CCN(CC(=O)O)CCN(CC(=O)O)CCN(CC(=O)O)CC2)NC(=O)COCCOCCNC(=O)CC[C@H](NC(=O)CC[C@H](NC(=O)c2cccc(NC(=O)N[C@@H]3CN(C4CCCCC4)c4ccccc4N(CC(=O)C(C)(C)C)C3=O)c2)C(=O)O)C(=O)O)C(=O)N[C@@H](Cc2ccc(O)cc2)C(=O)N[C@H](Cc2c[nH]c3ccccc23)C(=O)N[C@@H](CCCCN)C(=O)N[C@@H]([C@@H](C)O)C(=O)N1)C(=O)O (some centres unmarked) [^177Lu-1-13, metal not drawn]	0.64 %ID/g	0.09 %ID/g	0.21 %ID/g	0.27 %ID/g	0.54 %ID/g	0.19 %ID/g	0.89 %ID/g	0.37 %ID/g	58.6 %ID/g	46.7 %ID/g	0.79 %ID/g	1.21 %ID/g	1.57 %ID/g	0.43 %ID/g	0.08 %ID/g	0.08 %ID/g	1.59 %ID/g	0.43 %ID/g	0.47 %ID/g	2.23 %ID/g	tissue uptake at 4 h (in vivo, % ID/g Adrenal gland): 3.6 %ID/g; tissue uptake at 24 h (in vivo, % ID/g Adrenal gland): 0.81 %ID/g; tissue uptake at 72 h (in vivo, % ID/g Adrenal gland): 0.73 %ID/g; tissue uptake at 72 h (in vivo, % ID/g Blood): 0.03 %ID/g; tissue uptake at 72 h (in vivo, % ID/g Femur): 0.14 %ID/g; tissue uptake at 72 h (in vivo, % ID/g Heart): 0.11 %ID/g; tissue uptake at 72 h (in vivo, % ID/g Intestine): 0.22 %ID/g; tissue uptake at 72 h (in vivo, % ID/g Kidney): 22.5 %ID/g; tissue uptake at 72 h (in vivo, % ID/g Liver): 0.52 %ID/g; tissue uptake at 72 h (in vivo, % ID/g Lung): 0.38 %ID/g; tissue uptake at 72 h (in vivo, % ID/g Muscle): 0.05 %ID/g; tissue uptake at 24 h (in vivo, % ID/g Pancreas): 1.21 %ID/g; tissue uptake at 72 h (in vivo, % ID/g Pancreas): 0.91 %ID/g; tissue uptake at 72 h (in vivo, % ID/g Spleen): 0.64 %ID/g; tissue uptake at 24 h (in vivo, % ID/g Stomach): 2.19 %ID/g; tissue uptake at 72 h (in vivo, % ID/g Stomach): 1.95 %ID/g; tissue uptake at 4 h (in vivo, % ID/g Tumor): 14.6 %ID/g; tissue uptake at 24 h (in vivo, % ID/g Tumor): 14.8 %ID/g; tissue uptake at 72 h (in vivo, % ID/g Tumor): 6.83 %ID/g
C[C@@H](O)[C@H](NC(=O)[C@@H]1CSSC[C@H](NC(=O)[C@@H](Cc2ccccc2)NC(=O)COCCOCCNC(=O)[C@H](CCCCNC(=O)CC[C@H](NC(=O)CNC(=O)c2cccc(NC(=O)N[C@@H]3CN(C4CCCCC4)c4ccccc4N(CC(=O)C(C)(C)C)C3=O)c2)C(=O)O)NC(=O)COCCOCCNC(=O)CC[C@H](NC(=O)CC[C@H](NC(=O)CN2CCN(CC(=O)O)CCN(CC(=O)O)CCN(CC(=O)O)CC2)C(=O)O)C(=O)O)C(=O)N[C@@H](Cc2ccc(O)cc2)C(=O)N[C@H](Cc2c[nH]c3ccccc23)C(=O)N[C@@H](CCCCN)C(=O)N[C@@H]([C@@H](C)O)C(=O)N1)C(=O)O [^177Lu-1-14, metal not drawn]	1.32 %ID/g	0.09 %ID/g	0.49 %ID/g	0.4 %ID/g	0.8 %ID/g	0.17 %ID/g	0.6 %ID/g	1.25 %ID/g	48.2 %ID/g	68.6 %ID/g	3.31 %ID/g	2.24 %ID/g	1.32 %ID/g	0.72 %ID/g	0.17 %ID/g	0.17 %ID/g	2.11 %ID/g	0.64 %ID/g	0.56 %ID/g	3.68 %ID/g	tissue uptake at 4 h (in vivo, % ID/g Adrenal gland): 3.55 %ID/g; tissue uptake at 24 h (in vivo, % ID/g Adrenal gland): 2.72 %ID/g; tissue uptake at 72 h (in vivo, % ID/g Adrenal gland): 1.44 %ID/g; tissue uptake at 72 h (in vivo, % ID/g Blood): 0.02 %ID/g; tissue uptake at 72 h (in vivo, % ID/g Femur): 0.31 %ID/g; tissue uptake at 72 h (in vivo, % ID/g Heart): 0.19 %ID/g; tissue uptake at 72 h (in vivo, % ID/g Intestine): 0.37 %ID/g; tissue uptake at 72 h (in vivo, % ID/g Kidney): 24.3 %ID/g; tissue uptake at 72 h (in vivo, % ID/g Liver): 1.28 %ID/g; tissue uptake at 72 h (in vivo, % ID/g Lung): 0.95 %ID/g; tissue uptake at 72 h (in vivo, % ID/g Muscle): 0.11 %ID/g; tissue uptake at 24 h (in vivo, % ID/g Pancreas): 3.37 %ID/g; tissue uptake at 72 h (in vivo, % ID/g Pancreas): 3.14 %ID/g; tissue uptake at 72 h (in vivo, % ID/g Spleen): 2.17 %ID/g; tissue uptake at 24 h (in vivo, % ID/g Stomach): 2.25 %ID/g; tissue uptake at 72 h (in vivo, % ID/g Stomach): 2.99 %ID/g; tissue uptake at 4 h (in vivo, % ID/g Tumor): 30.9 %ID/g; tissue uptake at 24 h (in vivo, % ID/g Tumor): 14.9 %ID/g; tissue uptake at 72 h (in vivo, % ID/g Tumor): 18 %ID/g
C[C@@H](O)[C@H](NC(=O)[C@@H]1CSSC[C@H](NC(=O)[C@@H](Cc2ccccc2)NC(=O)CN2CCN(CC(=O)O)CCN(CC(=O)O)CCN(CC(=O)O)CC2)C(=O)N[C@@H](Cc2ccc(O)cc2)C(=O)N[C@H](Cc2c[nH]c3ccccc23)C(=O)N[C@@H](CCCCN)C(=O)N[C@@H]([C@@H](C)O)C(=O)N1)C(=O)O [^177Lu-C-1, metal not drawn, reference compound]	0.02 %ID/g	0.01 %ID/g	0.07 %ID/g	0.11 %ID/g	0.06 %ID/g	0.05 %ID/g	0.2 %ID/g	0.46 %ID/g	3.88 %ID/g	1.21 %ID/g	0.1 %ID/g	0.07 %ID/g	0.63 %ID/g	0.32 %ID/g	0.01 %ID/g	0.02 %ID/g	0.02 %ID/g	0.08 %ID/g	0.04 %ID/g	1.18 %ID/g	tissue uptake at 4 h (in vivo, % ID/g Adrenal gland): 8.73 %ID/g; tissue uptake at 24 h (in vivo, % ID/g Adrenal gland): 0.15 %ID/g; tissue uptake at 72 h (in vivo, % ID/g Adrenal gland): 0.13 %ID/g; tissue uptake at 72 h (in vivo, % ID/g Blood): 0.01 %ID/g; tissue uptake at 72 h (in vivo, % ID/g Femur): 0.08 %ID/g; tissue uptake at 72 h (in vivo, % ID/g Heart): 0.04 %ID/g; tissue uptake at 72 h (in vivo, % ID/g Intestine): 0.11 %ID/g; tissue uptake at 72 h (in vivo, % ID/g Liver): 0.06 %ID/g; tissue uptake at 72 h (in vivo, % ID/g Lung): 0.21 %ID/g; tissue uptake at 72 h (in vivo, % ID/g Muscle): 0.01 %ID/g; tissue uptake at 24 h (in vivo, % ID/g Pancreas): 0.16 %ID/g; tissue uptake at 72 h (in vivo, % ID/g Pancreas): 0.03 %ID/g; tissue uptake at 72 h (in vivo, % ID/g Spleen): 0.05 %ID/g; tissue uptake at 24 h (in vivo, % ID/g Stomach): 0.59 %ID/g; tissue uptake at 72 h (in vivo, % ID/g Stomach): 0.21 %ID/g; tissue uptake at 4 h (in vivo, % ID/g Tumor): 14 %ID/g; tissue uptake at 24 h (in vivo, % ID/g Tumor): 5.76 %ID/g; tissue uptake at 72 h (in vivo, % ID/g Tumor): 4.33 %ID/g
CCCC[C@H](NC(=O)[C@H](Cc1c[nH]c2ccccc12)NC(=O)CNC(=O)[C@H](Cc1ccc(O)cc1)NC(=O)[C@H](C)NC(=O)[C@@H](CCC(=O)O)NC(=O)[C@@H](CCC(=O)O)NC(=O)[C@@H](CCC(=O)O)NC(=O)[C@@H](CCC(=O)O)NC(=O)[C@@H](CCC(=O)O)NC(=O)[C@@H](CCC(=O)O)NC(=O)CN1CCN(CC(=O)O)CCN(CC(=O)O)CCN(CC(=O)O)CC1)C(=O)N[C@@H](CC(=O)O)C(=O)N[C@@H](Cc1ccccc1)C(N)=O [^177Lu-C-2, metal not drawn, reference compound]	0.08 %ID/g	0.01 %ID/g	0.12 %ID/g	0.24 %ID/g	0.05 %ID/g	0.04 %ID/g	0.06 %ID/g	0.05 %ID/g	2.72 %ID/g	0.71 %ID/g	0.15 %ID/g	0.12 %ID/g	0.06 %ID/g	0.11 %ID/g	0.06 %ID/g	0.01 %ID/g	0.01 %ID/g	0.06 %ID/g	0.05 %ID/g	0.21 %ID/g	tissue uptake at 24 h (in vivo, % ID/g Stomach): 0.17 %ID/g; tissue uptake at 4 h (in vivo, % ID/g Tumor): 1.07 %ID/g; tissue uptake at 24 h (in vivo, % ID/g Tumor): 0.82 %ID/g; tissue uptake at 24 h (pancreas, % ID/g Pancreas, 24 h post-injection, n=3): 0.02 %ID/g
